Consider two molecules from patent US20050054563A1 (Genentech, published 2005).

Assay [1] deals with T1, mouse WISP-1-IgG (chimeric recombinant mouse WISP-1 bearing a human immunoglobulin Fc fragment tag) (mouse).
T1 construct: also called mWISP-1-IgG; WISP-1-Fc
Description: competition solid phase assay: 0.25 nM WISP-1-IgG on coated human skin fibroblast conditioned media, soluble decorin varied. As to the method:
(§1) Decorin and biglycan were coated to microtiter wells overnight. Non-specific binding sites were saturated and 0.25 nM of mWISP-1-IgG was incubated for 2 hours. The wells were washed and incubated with horseradish peroxidase conjugated anti-human IgG Fc′ (2 μg/ml) for 1 hour. After 6 washes with PBS containing 0.05% Tween-20, a signal was developed by the incubation of a chromogenic substrate. The color development was stopped by the addition of 1 M phosphoric acid and the O.D. at 450 nm was measured.
(§2) Fifty microliters of human skin fibroblast conditioned media were coated in wells of microtiter plates. Non-specific binding sites were saturated and 0.25 nM of WISP-1-IgG was incubated in the presence of various concentrations of decorin (filled circles) or biglycan (empty circles) (FIG. 5B) for 2 hours. The binding of mWISP-1-IgG was evaluated as described above.

Assay [2] has as its target T1, mouse WISP-1-IgG (chimeric recombinant …). Description: competition solid phase assay: 0.25 nM WISP-1-IgG on coated human skin fibroblast conditioned media, soluble biglycan varied. As to the method: as §1, §2

T1 sequence (chain, as listed by the source mutant limits assumed): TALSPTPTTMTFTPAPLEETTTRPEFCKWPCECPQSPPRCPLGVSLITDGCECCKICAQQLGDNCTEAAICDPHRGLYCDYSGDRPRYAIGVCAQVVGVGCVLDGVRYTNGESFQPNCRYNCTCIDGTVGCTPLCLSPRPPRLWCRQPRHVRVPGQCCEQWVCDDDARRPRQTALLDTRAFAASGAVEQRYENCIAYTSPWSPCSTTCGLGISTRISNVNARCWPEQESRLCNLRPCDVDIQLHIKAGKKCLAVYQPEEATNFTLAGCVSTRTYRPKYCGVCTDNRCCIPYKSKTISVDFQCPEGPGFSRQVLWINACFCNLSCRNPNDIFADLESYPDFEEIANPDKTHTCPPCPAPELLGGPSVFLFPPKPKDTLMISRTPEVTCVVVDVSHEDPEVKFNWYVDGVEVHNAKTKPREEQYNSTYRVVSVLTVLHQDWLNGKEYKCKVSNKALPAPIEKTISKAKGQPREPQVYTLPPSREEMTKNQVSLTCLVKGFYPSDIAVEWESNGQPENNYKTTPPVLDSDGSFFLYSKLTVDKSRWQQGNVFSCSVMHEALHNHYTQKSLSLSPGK

B1: decorin from bovine articular cartilage (Sigma) (other, UniProt P21793 31-360, looked up)
chain: DEASGIGPEEHFPEVPEIEPMGPVCPFRCQCHLRVVQCSDLGLEKVPKDLPPDTALLDLQNNKITEIKDGDFKNLKNLHTLILINNKISKISPGAFAPLVKLERLYLSKNQLKELPEKMPKTLQELRVHENEITKVRKSVFNGLNQMIVVELGTNPLKSSGIENGAFQGMKKLSYIRIADTNITTIPQGLPPSLTELHLDGNKITKVDAASLKGLNNLAKLGLSFNSISAVDNGSLANTPHLRELHLNNNKLVKVPGGLADHKYIQVVYLHNNNISAIGSNDFCPPGYNTKKASYSGVSLFSNPVQYWEIQPSTFRCVYVRAAVQLGNYK
modifications: proteoglycan; dermatan sulfate glycosaminoglycan chain on the core protein (site not stated for this preparation)
Turning to B1, the IC50 in assay [1] turned out to be 70 µg/mL.

B2: biglycan from bovine articular cartilage (Sigma) (other, UniProt P21809 38-369, looked up)
chain: DEEASGAETTSGIPDLDSLPPTYSAMCPFGCHCHLRVVQCSDLGLKAVPKEISPDTTLLDLQNNDISELRKDDFKGLQHLYALVLVNNKISKIHEKAFSPLRKLQKLYISKNHLVEIPPNLPSSLVELRIHDNRIRKVPKGVFSGLRNMNCIEMGGNPLENSGFEPGAFDGLKLNYLRISEAKLTGIPKDLPETLNELHLDHNKIQAIELEDLLRYSKLYRLGLGHNQIRMIENGSLSFLPTLRELHLDNNKLSRVPAGLPDLKLLQVVYLHTNNITKVGVNDFCPVGFGVKRAYYNGISLFNNPVPYWEVQPATFRCVTDRLAIQFGNYKK
modifications: proteoglycan; glycosaminoglycan chains on the core protein (sites not stated for this preparation)
B2: in assay [2], the IC50 is 105 µg/mL.

A word on the IC50: it is the concentration that inhibits the measured activity by half.
